Laboratory results as given in patent US8461305B2, “L-fucose α1→6 specific lectin” (J-Oil Mills, Inc., priority 2008, dated 2013).

What was measured:
Test in all cases: detection of glycoprotein by Western blotting with biotin-labeled lectin
Type in all cases: binding
Set-up in all cases: key: ◯: Detected; X: Not detected
[1] = target: T1, Invertase (yeast) (Saccharomyces cerevisiae, UniProt P00724); details: (6) Invertase (yeast), High mannose-type sugar chain; biotin-labeled lectin 2 μg/ml
T1 sequence (P00724 20-532): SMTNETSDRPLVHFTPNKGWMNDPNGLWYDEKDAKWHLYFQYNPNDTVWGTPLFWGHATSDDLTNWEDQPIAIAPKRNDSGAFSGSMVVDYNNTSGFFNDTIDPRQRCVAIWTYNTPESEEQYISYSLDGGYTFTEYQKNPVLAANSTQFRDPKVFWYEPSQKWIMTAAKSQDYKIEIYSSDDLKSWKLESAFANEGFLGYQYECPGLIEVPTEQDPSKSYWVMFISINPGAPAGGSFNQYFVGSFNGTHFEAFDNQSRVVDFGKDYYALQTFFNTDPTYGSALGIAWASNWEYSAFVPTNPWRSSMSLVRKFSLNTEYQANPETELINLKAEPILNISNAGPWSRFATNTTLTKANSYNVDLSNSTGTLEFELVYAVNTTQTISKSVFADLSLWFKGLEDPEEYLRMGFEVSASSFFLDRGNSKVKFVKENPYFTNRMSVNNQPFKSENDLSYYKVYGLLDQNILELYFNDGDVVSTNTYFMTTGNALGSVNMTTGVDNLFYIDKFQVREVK
Experimental: (§1) PTL of Example 1, SRL of Example 2, AAL of Comparison Example 1, AOL of Comparison Example 2, and LCA of Comparison Example 3 all subjected to biotin-labeling.
(§2) Lectin was measured and was dissolved in 0.1 M sodium hydrogen carbonate solution (5 mg/ml). Then, a biotinylation reagent was dissolved in dimethyl sulfoxide and the resultant solution was added to lectin solution to cause reaction therebetween. Then, the reactant was […] and lyophilized, thereby obtain biotin-labeled lectin.
(§3) The solution obtained by dissolving the glycoprotein sample in 10 mM phosphate buffered saline (pH 7.4, PBS) at 2 mg/ml was dispensed to a microtube by a unit of 18 μl. 6 μl of SDS process liquid (Sample Buffer Solution (2ME−); Wako Pure Chemical Industries, Ltd.) and 1.25 μl of 2-mercaptoethanol (Bio-Rad Laboratories, Inc.) was added to each dispensed fluid and the resultant mixture was boiled for 5 minutes.
(§4) The film was immersed in 10 mM Tris buffer solution including 0.8% NaCl added with 1% BSA (pH 7.4, 1% BSA+TBS) and was shaken at a room temperature for one hour. Then, the film was cleaned three times by 10 mM Tris buffer solution (pH 7.4, TBS) including 0.8% NaCl. Then, the film was immersed in biotin-labeled lectin solution (2 μg/ml) and was shaken at a room temperature for one hour. Then, the film was cleaned three times by TBS. Then, the film was immersed in the HRP label streptavidin solution at 1 μg/ml (Vector Laboratories) and was shaken at a room temperature for 30 minutes. After the film was cleaned three times by TBS, a POD immunostain set (Wako Pure Chemical Industries, Ltd.) was used to perform a staining test. The staining test is to detect glycoprotein by the western blotting using biotin-labeled lectin. FIG. 13 to FIG. 17 are photographs showing the following glycoproteins stained by PTL (FIG. 13), SRL (FIG. 14), AAL (FIG. 15), AOL (FIG. 16), or LCA (FIG. 17).
(§5) In FIG. 13 to FIG. 17, the lanes 0 to 6 correspond to the followings. Lane 1: thyroglobulin, lane 2: lactoferrin, lane 3: immune immunoglobulin, lane 4: transferrin, lane 5: α1-acidic glycoprotein, lane 6: invertase, lane 0: bovine serum albumin (control)

[2] = tested on: Immune-globulin G (human); details: (3) Immune-globulin G (human), N-linked glycan having α1→6 L-fucose; biotin-labeled lectin 2 μg/ml
Experimental: as §1, §2, §3, §4, §5

[3] = target: Transferrin (human) (Homo sapiens, UniProt P02787); details: (4) Transferrin (human), N-linked glycan not including α1→6 L-fucose; biotin-labeled lectin 2 μg/ml
Transferrin (human), sequence (P02787 20-698): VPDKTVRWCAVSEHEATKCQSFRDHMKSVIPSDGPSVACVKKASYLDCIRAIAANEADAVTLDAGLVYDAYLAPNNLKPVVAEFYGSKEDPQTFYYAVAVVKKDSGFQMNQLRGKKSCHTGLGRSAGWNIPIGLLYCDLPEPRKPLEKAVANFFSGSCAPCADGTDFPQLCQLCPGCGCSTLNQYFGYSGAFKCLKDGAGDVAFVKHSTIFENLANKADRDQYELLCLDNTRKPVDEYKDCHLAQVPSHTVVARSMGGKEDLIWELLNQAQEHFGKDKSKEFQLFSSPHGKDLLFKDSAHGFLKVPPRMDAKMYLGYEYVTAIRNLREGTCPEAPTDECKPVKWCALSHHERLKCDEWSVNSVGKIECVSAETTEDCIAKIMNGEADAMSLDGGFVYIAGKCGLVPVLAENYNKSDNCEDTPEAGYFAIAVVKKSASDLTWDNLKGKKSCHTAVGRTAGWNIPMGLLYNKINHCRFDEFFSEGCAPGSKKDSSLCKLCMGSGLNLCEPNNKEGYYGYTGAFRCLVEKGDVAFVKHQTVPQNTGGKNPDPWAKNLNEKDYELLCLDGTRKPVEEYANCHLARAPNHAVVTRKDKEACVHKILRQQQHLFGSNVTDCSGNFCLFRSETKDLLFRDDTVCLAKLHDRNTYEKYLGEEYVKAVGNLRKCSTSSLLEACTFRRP
Experimental: as §1, §2, §3, §4, §5

[4] = target: Lactoferrin (bovine) (Bos taurus, UniProt P24627); details: (2) Lactoferrin (bovine), N-linked glycan having α1→6 L-fucose; biotin-labeled lectin 2 μg/ml
Lactoferrin (bovine), sequence (P24627 20-708): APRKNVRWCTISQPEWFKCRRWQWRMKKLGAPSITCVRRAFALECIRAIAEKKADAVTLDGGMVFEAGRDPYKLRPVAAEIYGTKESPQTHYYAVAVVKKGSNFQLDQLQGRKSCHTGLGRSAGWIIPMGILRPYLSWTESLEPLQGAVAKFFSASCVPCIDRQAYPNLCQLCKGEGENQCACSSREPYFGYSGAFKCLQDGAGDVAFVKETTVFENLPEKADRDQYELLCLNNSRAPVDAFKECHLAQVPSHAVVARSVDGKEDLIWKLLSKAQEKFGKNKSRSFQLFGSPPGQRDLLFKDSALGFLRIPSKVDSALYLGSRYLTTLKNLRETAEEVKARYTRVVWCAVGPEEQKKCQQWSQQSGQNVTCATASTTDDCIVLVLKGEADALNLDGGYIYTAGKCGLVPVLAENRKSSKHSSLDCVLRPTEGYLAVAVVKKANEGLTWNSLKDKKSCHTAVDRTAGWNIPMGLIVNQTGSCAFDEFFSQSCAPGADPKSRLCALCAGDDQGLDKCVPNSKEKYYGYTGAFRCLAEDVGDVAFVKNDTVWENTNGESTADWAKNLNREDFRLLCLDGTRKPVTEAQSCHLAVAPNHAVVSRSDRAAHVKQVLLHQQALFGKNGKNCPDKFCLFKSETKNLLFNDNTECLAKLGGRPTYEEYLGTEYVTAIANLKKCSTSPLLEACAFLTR
Experimental: as §1, §2, §3, §4, §5

[5] = target: Blood serum albumin (bovine) (Bos taurus, UniProt P02769); details: (O) Blood serum albumin (bovine), No sugar chain; biotin-labeled lectin 2 μg/ml
Blood serum albumin (bovine), sequence (P02769 25-607): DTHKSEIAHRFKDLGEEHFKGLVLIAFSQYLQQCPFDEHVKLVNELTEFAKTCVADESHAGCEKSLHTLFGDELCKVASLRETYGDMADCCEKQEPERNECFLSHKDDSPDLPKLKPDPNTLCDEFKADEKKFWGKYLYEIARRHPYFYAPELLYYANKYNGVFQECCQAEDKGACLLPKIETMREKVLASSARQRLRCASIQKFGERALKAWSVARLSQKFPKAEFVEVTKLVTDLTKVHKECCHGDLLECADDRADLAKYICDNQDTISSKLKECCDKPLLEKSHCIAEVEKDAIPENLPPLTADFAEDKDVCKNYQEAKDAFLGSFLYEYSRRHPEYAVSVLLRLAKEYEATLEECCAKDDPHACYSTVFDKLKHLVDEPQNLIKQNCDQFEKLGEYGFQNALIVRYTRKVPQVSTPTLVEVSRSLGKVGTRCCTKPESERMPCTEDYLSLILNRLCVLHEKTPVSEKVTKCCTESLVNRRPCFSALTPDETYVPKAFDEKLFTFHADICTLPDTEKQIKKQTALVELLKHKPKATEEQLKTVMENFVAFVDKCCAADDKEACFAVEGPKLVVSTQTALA
Experimental: as §1, §2, §3, §4, §5

[6] = tested on: α1-acidic glycoprotein (human); details: (5) α1-acidic glycoprotein (human), N-linked glycan having α1→3 L-fucose; biotin-labeled lectin 2 μg/ml
Experimental: as §1, §2, §3, §4, §5

[7] = target: Thyroglobulin (pig) (Sus scrofa, UniProt F1RRV3); details: (1) Thyroglobulin (pig), N-linked glycan having α1→6 L-fucose; biotin-labeled lectin 2 μg/ml
Thyroglobulin (pig), sequence (F1RRV3 20-2692): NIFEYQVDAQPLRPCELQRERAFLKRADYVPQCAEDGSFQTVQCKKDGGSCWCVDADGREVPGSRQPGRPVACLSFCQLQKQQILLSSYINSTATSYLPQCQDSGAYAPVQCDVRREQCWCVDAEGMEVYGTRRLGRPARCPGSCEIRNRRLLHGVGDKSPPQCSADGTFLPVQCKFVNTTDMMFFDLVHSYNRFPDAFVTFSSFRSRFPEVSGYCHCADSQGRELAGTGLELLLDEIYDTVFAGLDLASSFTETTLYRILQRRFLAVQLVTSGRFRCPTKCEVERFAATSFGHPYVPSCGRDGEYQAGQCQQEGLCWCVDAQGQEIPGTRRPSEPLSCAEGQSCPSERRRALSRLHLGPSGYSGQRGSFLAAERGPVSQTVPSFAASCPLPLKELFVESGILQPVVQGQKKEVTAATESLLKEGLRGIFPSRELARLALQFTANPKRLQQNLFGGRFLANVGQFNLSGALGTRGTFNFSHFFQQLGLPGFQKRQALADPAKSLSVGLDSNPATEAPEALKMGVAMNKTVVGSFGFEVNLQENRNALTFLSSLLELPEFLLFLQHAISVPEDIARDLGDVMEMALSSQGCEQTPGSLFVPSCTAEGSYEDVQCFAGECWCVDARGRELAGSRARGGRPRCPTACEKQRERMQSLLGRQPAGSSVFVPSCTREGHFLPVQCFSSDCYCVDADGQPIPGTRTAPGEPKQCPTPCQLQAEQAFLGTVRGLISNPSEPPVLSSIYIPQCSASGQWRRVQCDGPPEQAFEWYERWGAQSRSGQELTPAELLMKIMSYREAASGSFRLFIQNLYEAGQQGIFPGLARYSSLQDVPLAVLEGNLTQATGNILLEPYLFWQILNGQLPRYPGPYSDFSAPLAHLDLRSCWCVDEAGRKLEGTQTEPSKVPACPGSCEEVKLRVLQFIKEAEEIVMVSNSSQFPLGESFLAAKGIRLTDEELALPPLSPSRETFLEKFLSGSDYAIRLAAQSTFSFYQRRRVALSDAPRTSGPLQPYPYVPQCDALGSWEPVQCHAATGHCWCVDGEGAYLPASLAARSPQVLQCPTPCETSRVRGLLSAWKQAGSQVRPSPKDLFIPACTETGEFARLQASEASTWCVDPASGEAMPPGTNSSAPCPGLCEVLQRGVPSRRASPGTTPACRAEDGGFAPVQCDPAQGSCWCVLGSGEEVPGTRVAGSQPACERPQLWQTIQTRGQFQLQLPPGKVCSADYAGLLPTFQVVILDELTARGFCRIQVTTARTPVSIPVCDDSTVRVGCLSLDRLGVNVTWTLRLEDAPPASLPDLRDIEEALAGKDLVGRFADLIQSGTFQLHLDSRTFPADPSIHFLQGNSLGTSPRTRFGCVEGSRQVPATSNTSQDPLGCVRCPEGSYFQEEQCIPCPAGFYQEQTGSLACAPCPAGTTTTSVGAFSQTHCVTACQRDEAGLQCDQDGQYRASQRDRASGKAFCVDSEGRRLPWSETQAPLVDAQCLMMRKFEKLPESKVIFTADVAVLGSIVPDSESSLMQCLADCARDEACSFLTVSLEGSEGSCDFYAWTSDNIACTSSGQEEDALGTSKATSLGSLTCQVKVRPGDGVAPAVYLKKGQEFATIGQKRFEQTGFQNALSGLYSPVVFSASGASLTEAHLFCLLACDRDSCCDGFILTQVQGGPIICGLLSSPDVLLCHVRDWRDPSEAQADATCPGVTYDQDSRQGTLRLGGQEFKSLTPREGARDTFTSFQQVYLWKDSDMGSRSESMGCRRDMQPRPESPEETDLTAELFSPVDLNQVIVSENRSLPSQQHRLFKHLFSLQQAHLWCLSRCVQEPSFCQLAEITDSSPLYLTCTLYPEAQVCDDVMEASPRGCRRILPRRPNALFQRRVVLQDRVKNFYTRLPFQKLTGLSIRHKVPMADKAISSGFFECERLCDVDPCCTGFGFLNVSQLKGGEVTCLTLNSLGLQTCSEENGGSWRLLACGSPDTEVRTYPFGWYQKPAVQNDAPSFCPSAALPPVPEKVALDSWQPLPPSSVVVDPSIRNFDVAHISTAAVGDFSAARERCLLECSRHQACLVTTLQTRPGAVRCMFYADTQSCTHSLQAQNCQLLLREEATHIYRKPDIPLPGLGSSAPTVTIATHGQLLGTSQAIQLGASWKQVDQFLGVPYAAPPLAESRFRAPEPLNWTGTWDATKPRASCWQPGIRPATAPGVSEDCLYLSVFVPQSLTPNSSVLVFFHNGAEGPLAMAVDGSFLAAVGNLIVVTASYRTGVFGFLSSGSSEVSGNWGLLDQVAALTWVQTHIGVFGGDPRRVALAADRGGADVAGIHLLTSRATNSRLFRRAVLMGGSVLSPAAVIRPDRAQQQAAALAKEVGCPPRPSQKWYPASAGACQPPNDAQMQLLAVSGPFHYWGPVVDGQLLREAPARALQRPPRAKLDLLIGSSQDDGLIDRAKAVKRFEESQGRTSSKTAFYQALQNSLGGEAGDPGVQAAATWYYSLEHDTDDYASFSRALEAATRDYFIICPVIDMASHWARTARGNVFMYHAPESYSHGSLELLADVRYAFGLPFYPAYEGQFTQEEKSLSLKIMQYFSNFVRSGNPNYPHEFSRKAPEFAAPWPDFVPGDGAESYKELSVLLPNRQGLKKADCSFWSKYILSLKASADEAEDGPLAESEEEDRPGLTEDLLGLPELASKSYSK
Experimental: as §1, §2, §3, §4, §5

Measured: detection of glycoprotein by Western blotting

Aspergillus oryzae lectin [AOL, reference compound]
◯: [2] | [4] | [7]
X: all other assays above

Pholiota terrestris lectin [PTL, novel L-fucose α1→6 specific lectin purified from the mushroom Pholiota terrestris]
◯: [2] | [4] | [7]
X: all other assays above

Stropharia rugosoannulata lectin [SRL, novel L-fucose α1→6 specific lectin purified from the mushroom Stropharia rugosoannulata]
◯: [2] | [4] | [7]
X: all other assays above

B1: Aleuria aurantia lectin (protein)
chain: PTEFLYTSKIAAISWAATGGRQQRVYFQDLNGKIREAQRGGDNPWTGGSSQNVIGEAKLFSPLAAVTWKSAQGIQIRVYCVNKDNILSEFVYDGSKWITGQLGSVGVKVGSNSKLAALQWGGSESAPPNIRVYYQKSNGSGSSIHEYVWSGKWTAGASFGSTVPGTGIGATAIGPGRLRIYYQATDNKIREHCWDSNSWYVGGFSASASAGVSIAAISWGSTPNIRVYWQKGREELYEAAYGGSWNTPGQIKDASRPTPSLPDTFIAANSSGNIDISVFFQASGVSLQQWQWISGKGWSIGAVVPTGTPAGW
◯: [2] | [4] | [7]
X: all other assays above

B2: Lens culinaris agglutinin (protein)
chain 1: TETTSFSITKFSPDQKNLIFQGDGYTTKGKLTLTKAVKSTVGRALYSTPIHIWDRDTGNVANFVTSFTFVIDAPSSYNVADEFTFFIAPVDTKPQTGGGYLGVFNSKEYDKTSQTVAVEFDTFYNAAWDPSNKERHIGIDVNSIKSVNTKSWNLQNGERANVVIAFNAATNVLTVTLTYP
chain 2: VTSYTLNEVVPLKDVVPEWVRIGFSATTGAEFAAHEVHSWSFHSELGGTSSS
X: [3] | [5] | [6]
◯: all other assays above
